Measured values: the supplement of paper PMC9170038

Tested on: MS2 coat protein
Assay: apparent KD of MS2 coat protein; higher = weaker reporter binding
Settings: Eterna round: R107
Outline: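 For every design, apparent KD is the median of normalised binding-curve fits from its clusters. The RNA switches were transcribed on-chip from Illumina sequencing clusters and titrated with SNAP-549-labelled MS2 coat protein (twofold steps, 0.7 or 1.5 nM to 3 µM; 0.8–1.5 h to 10–20 min per step). Titrations used 100 mM Tris-HCl pH 7.5, 80 mM KCl, 4 mM MgCl2, without or with constant ligand.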

[1] = input ligand: theophylline 20 uM
[2] = input ligand: theophylline 2 mM
[3] = input ligand: tryptophan 2.4 mM

Sequence: AUAACAUGAGGAUCACCCAUGUAAGCUGAAGGAGCGCUGGAAACAGCAGGUAGGUCGCAGCAUGUUUCCACAUGGGUAGGAAACU [(M1)-(M2)-(Arg1)-(Arg2)-(A)'-(M)'-(A)''_Design8]
- apparent KD of MS2 coat protein (input ligand: arginine 13.2 mM): 0.0424 µM
- apparent KD of MS2 coat protein (input ligand: none): 0.08 µM
- apparent KD of MS2 coat protein [1]: 0.0862 µM
- apparent KD of MS2 coat protein [2]: 0.123 µM
- apparent KD of MS2 coat protein [3]: 0.0495 µM

Sequence: CGGGUUGGACCAGGAAAUGGUCUGACGCGCCGAGGACCGGUACGGCCGCCACUCGCGGGUACAUGAGGAUCACCCAUGUCGGUGG [#1 Same State - Tryptophan A Attempt #12 (HarryS)]
- apparent KD of MS2 coat protein (input ligand: arginine 13.2 mM): 0.0582 µM
- apparent KD of MS2 coat protein (input ligand: none): 0.0504 µM
- apparent KD of MS2 coat protein [1]: 0.0693 µM
- apparent KD of MS2 coat protein [2]: 0.0617 µM
- apparent KD of MS2 coat protein [3]: 0.093 µM

Sequence: UGUCCGUGAUCGGCCGCCACUCAACAAACCUGUGGAAACUGACAUGAGGAUCACCCAUGUUCUUGGAGGACCGGGAUUGCUUCGA [theeternabot_sameState_MS2_Trp_B_4]
- apparent KD of MS2 coat protein (input ligand: arginine 13.2 mM): 0.0167 µM
- apparent KD of MS2 coat protein [1]: 0.0197 µM
- apparent KD of MS2 coat protein [2]: 0.0185 µM

Sequence: UUUCUUUUCUUUCUUUCCUUUCAAACCGAAGGAGCGGGAACAAACCCAGGUAGGUCGCGGUGUGACAUGAGGAUCACCCAUGUGU [Exclusion - Arginine]
- apparent KD of MS2 coat protein (input ligand: arginine 13.2 mM): 0.0655 µM
- apparent KD of MS2 coat protein (input ligand: none): 0.078 µM
- apparent KD of MS2 coat protein [1]: 0.106 µM
- apparent KD of MS2 coat protein [2]: 0.085 µM
- apparent KD of MS2 coat protein [3]: 0.0581 µM

Sequence: ACGUAAUGCAGAAGGAGCGUCGAUCUCAUACAUGAGGAUCACCCAUGUUACAUGGUUGGACGACAGGUAGGUCGCUGAAGUACGA [#06 Exclusion - Arginine B]
- apparent KD of MS2 coat protein (input ligand: arginine 13.2 mM): 0.0242 µM
- apparent KD of MS2 coat protein (input ligand: none): 0.0206 µM
- apparent KD of MS2 coat protein [1]: 0.0355 µM
- apparent KD of MS2 coat protein [2]: 0.0274 µM
- apparent KD of MS2 coat protein [3]: 0.0214 µM

Sequence: ACAUGAGGAUCACCCAUGUAAAUAACGGAAGGAGCGUGCGAAAGCACAGGUAGGUCGCCGAUAUAAAUAUUGGGUAUUAUAUUAU [#28 Exclusion - Arginine A]
- apparent KD of MS2 coat protein (input ligand: arginine 13.2 mM): 0.0178 µM
- apparent KD of MS2 coat protein (input ligand: none): 0.0318 µM
- apparent KD of MS2 coat protein [1]: 0.0471 µM
- apparent KD of MS2 coat protein [2]: 0.0291 µM
- apparent KD of MS2 coat protein [3]: 0.0288 µM

Sequence: ACGAACGAUAGUGAUACCAGACGUACAUGAGGAUCACCCAUGUUGUAAACAUGGUUAAUAGUCCCUUGGCAGCACGAUAAGUUCG [JR_ExcTheophyB_Sub003]
- apparent KD of MS2 coat protein (input ligand: arginine 13.2 mM): 0.104 µM
- apparent KD of MS2 coat protein [1]: 0.53 µM
- apparent KD of MS2 coat protein [3]: 0.802 µM

Sequence: AGCCUCAUACAUGAGGAACACCCAUGUGAUACCAGUCAGGAAACUGACCCUUGGCAGCGCAUGAGGAUCACCCAUGCGCGAGGCA [Omei Theo A Exc A v3]
- apparent KD of MS2 coat protein (input ligand: arginine 13.2 mM): 0.0204 µM
- apparent KD of MS2 coat protein (input ligand: none): 0.063 µM
- apparent KD of MS2 coat protein [1]: 0.0782 µM
- apparent KD of MS2 coat protein [2]: 0.237 µM
- apparent KD of MS2 coat protein [3]: 0.0477 µM

Sequence: UAAUUUAUAGGGUAUAUCAGAUUAACUGAAGGAGCGUGGUAAUACACAGGUAGGUCGCAGAUGGAACAUGAGGAUCACCCAUGUU [JR_ExcArginiA_Sub016]
- apparent KD of MS2 coat protein (input ligand: arginine 13.2 mM): 0.0176 µM
- apparent KD of MS2 coat protein (input ligand: none): 0.02 µM
- apparent KD of MS2 coat protein [1]: 0.027 µM
- apparent KD of MS2 coat protein [2]: 0.0257 µM
- apparent KD of MS2 coat protein [3]: 0.0212 µM

Sequence: CUAUAGAUAAGAAGGAGCGUCGAAAAUGGGUAAACAUGAGGAUCACCCAUGUAAAGGGAACGACAGGUAGGUCGCUUAUUUAUAG [AstromonsSSArgB#6]
- apparent KD of MS2 coat protein (input ligand: arginine 13.2 mM): 0.124 µM
- apparent KD of MS2 coat protein (input ligand: none): 0.217 µM
- apparent KD of MS2 coat protein [1]: 0.206 µM
- apparent KD of MS2 coat protein [2]: 0.226 µM
- apparent KD of MS2 coat protein [3]: 0.145 µM

Sequence: GCUGUAAGUGCAGAUACCAGCGUGUUAUAUUUCUAAUGACAUGAGGAUCACCCAUGUAAAUGCCCUUGGCAGCUGCACUUACAGC [SSTHB #7]
- apparent KD of MS2 coat protein (input ligand: arginine 13.2 mM): 0.0132 µM
- apparent KD of MS2 coat protein [1]: 0.0167 µM
- apparent KD of MS2 coat protein [3]: 0.0162 µM

Sequence: GAUGAACUAUAUGAUACCAGACAACAUGAGGAUCACCCAUGUGAUAGUCGUCCUCUGCCUGUCCCUUGGCAGCGUAUAGUUUAUC [XTheo B #19]
- apparent KD of MS2 coat protein (input ligand: arginine 13.2 mM): 0.0307 µM
- apparent KD of MS2 coat protein [1]: 0.0747 µM
- apparent KD of MS2 coat protein [3]: 0.0212 µM

Sequence: GAAUUUUAUUGAAGGAGCGUCGAAAAUGGGUAAACAUGAGGAUCACCCAUGUAAAGGGAACGACAGGUAGGUCGCAAUAGGAUUC [AstromonsSSArgB#28]
- apparent KD of MS2 coat protein (input ligand: arginine 13.2 mM): 0.14 µM
- apparent KD of MS2 coat protein (input ligand: none): 0.177 µM
- apparent KD of MS2 coat protein [1]: 0.188 µM
- apparent KD of MS2 coat protein [2]: 0.247 µM
- apparent KD of MS2 coat protein [3]: 0.151 µM

Sequence: GACAUGAGGAUCACCCAUGUACCGCGAGAAGGAGCGCGGAUAAACGCAGGUAGGUCGCUCGUGGGCUCACAUUCAAUCGUAAGCU [Azaesisma]
- apparent KD of MS2 coat protein (input ligand: arginine 13.2 mM): 0.0509 µM
- apparent KD of MS2 coat protein (input ligand: none): 0.0986 µM
- apparent KD of MS2 coat protein [1]: 0.116 µM
- apparent KD of MS2 coat protein [2]: 0.165 µM
- apparent KD of MS2 coat protein [3]: 0.0777 µM

Sequence: UUAUAAGUACCGGUCCUCAGAUCCUCAUGACGAGGACCGGUACGGCCGCCACUCGAAACAUGAGGAUCACCCAUGUAAUAACAUC [Brourdmod21]
- apparent KD of MS2 coat protein (input ligand: arginine 13.2 mM): 0.019 µM
- apparent KD of MS2 coat protein [1]: 0.0275 µM
- apparent KD of MS2 coat protein [2]: 0.0259 µM

Sequence: GAUAUACGUGCGGCCGCCACUGAGUGGCGGGCGUGUCGAGUUACAUGAGGAUCACCCAUGUCACUCAGGACCGGGCACGGAAUUU [Soveri]
- apparent KD of MS2 coat protein (input ligand: arginine 13.2 mM): 0.00764 µM
- apparent KD of MS2 coat protein [1]: 0.0141 µM
- apparent KD of MS2 coat protein [2]: 0.011 µM
